{"source": "paper PMC4505582", "about": "(The Journal of Biological Chemistry, 2015)", "binders": {"B1": {"name": "F-ATPase subunit d (natural protein)", "chain": "not shown", "notes": "ATP synthase subunit d, mitochondrial, bovine; endogenous subunit of the peripheral stalk of the purified F-ATPase; source: purified from bovine mitochondrial membranes as part of the F-ATPase complex"}, "B2": {"name": "F-ATPase subunit f (natural protein, bovine, UniProt Q28851 1-88, looked up)", "chain": "MASVVPLKEKKLLEVKLGELPSWILMRDFTPSGIAGAFQRGYYRYYNKYVNVKKGSIAGLSMVLAAYVFLNYCRSYKELKHERLRKYH", "notes": "ATP synthase subunit f, mitochondrial, bovine; endogenous supernumerary membrane subunit of the purified F-ATPase; source: purified from bovine mitochondrial membranes as part of the F-ATPase complex"}, "B3": {"name": "F-ATPase subunit F6 (natural protein, bovine, UniProt P02721 33-108, looked up)", "chain": "NKELDPVQKLFVDKIREYRTKRQTSGGPVDAGPEYQQDLDRELFKLKQMYGKADMNTFPNFTFEDPKFEVVEKPQS", "notes": "ATP synthase coupling factor 6, mitochondrial, bovine; endogenous subunit of the peripheral stalk of the purified F-ATPase; printed length 76 amino acids; source: purified from bovine mitochondrial membranes as part of the F-ATPase complex"}}, "conditions_in_all_cases": "both partners purified", "key": {"F-ATPase subunit f": {"biological_target": "B2", "experiment": "cross-linking; purified monomeric bovine F-ATPase (2 μM, 1.16 mg/ml) in detergent and phospholipids reacted with 2 mM DSS(d0/d12), pH 8.0, 2 h; tryptic digest, cation exchange fractionation, linked lysines identified by mass spectrometry"}, "F-ATPase subunit F6": {"biological_target": "B3", "experiment": "cross-linking; purified monomeric bovine F-ATPase (2 μM, 1.16 mg/ml) in detergent and phospholipids reacted with 2 mM DSS(d0/d12), pH 8.0, 2 h; tryptic digest, cation exchange fractionation, linked lysines identified by mass spectrometry"}, "F-ATPase subunit d [1]": {"biological_target": "B1", "experiment": "cross-linking; purified monomeric bovine F-ATPase (2 μM, 1.16 mg/ml) in detergent and phospholipids reacted with 2 mM DSS(d0/d12), pH 8.0, 2 h; tryptic digest, cation exchange fractionation, linked lysines identified by mass spectrometry"}, "F-ATPase subunit b [2]": {"biological_target": "T1, F-ATPase subunit b (bovine, UniProt P13619 43-256)", "T1 construct": "ATP synthase subunit b, mitochondrial, bovine; endogenous subunit of the peripheral stalk of the purified F-ATPase; source: purified from bovine mitochondrial membranes as part of the F-ATPase complex", "T1 sequence (looked up)": "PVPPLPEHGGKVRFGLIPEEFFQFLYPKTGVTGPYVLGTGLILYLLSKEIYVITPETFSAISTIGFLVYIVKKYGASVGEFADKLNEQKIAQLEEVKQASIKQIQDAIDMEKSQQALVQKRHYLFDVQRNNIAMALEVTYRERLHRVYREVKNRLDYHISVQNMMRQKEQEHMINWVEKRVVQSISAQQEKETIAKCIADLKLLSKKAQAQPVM", "experiment": "cross-linking; purified monomeric bovine F-ATPase (2 μM, 1.16 mg/ml) in detergent and phospholipids reacted with 2 mM DSS(d0/d12), pH 8.0, 2 h; tryptic digest, cation exchange fractionation, linked lysines identified by mass spectrometry"}, "[3]": {"biological_target": "T2, F-ATPase subunit 6.8PL (6.8-kDa proteolipid) (bovine, UniProt P14790 1-60)", "T2 construct": "6.8 kDa mitochondrial proteolipid, bovine; endogenous supernumerary membrane subunit of the purified F-ATPase; source: purified from bovine mitochondrial membranes as part of the F-ATPase complex", "experiment": "cross-linking; purified monomeric bovine F-ATPase (2 μM, 1.16 mg/ml) in detergent and phospholipids reacted with 2 mM DSS(d0/d12), pH 8.0, 2 h; tryptic digest, cation exchange fractionation, linked lysines identified by mass spectrometry"}, "F-ATPase subunit b [4]": {"biological_target": "T1, F-ATPase subunit b", "experiment": "cross-linking; purified monomeric bovine F-ATPase reacted with BS^3(d0/d12) at the same concentration and under the same conditions as DSS; tryptic digest, linked lysines identified by mass spectrometry"}, "F-ATPase α-subunit": {"biological_target": "T3, F-ATPase α-subunit (bovine, UniProt P19483 44-553)", "T3 construct": "ATP synthase subunit alpha, mitochondrial, bovine; endogenous subunit of the F1 domain of the purified F-ATPase (three copies in the enzyme); also called subunit α; source: purified from bovine mitochondrial membranes as part of the F-ATPase complex", "T3 sequence (P19483 44-553)": "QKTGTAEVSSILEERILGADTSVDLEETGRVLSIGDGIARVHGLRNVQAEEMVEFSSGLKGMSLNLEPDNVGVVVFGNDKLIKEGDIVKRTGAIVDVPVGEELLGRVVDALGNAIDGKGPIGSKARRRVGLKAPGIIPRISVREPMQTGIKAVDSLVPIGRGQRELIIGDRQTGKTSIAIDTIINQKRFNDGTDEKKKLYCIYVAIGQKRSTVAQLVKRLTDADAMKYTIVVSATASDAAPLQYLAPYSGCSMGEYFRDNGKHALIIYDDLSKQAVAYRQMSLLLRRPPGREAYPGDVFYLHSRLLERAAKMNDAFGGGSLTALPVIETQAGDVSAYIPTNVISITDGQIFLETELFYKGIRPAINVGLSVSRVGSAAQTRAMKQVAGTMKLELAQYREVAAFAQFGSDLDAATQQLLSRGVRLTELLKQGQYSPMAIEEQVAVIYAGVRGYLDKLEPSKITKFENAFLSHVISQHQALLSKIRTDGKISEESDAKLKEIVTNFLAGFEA", "experiment": "cross-linking; purified monomeric bovine F-ATPase (2 μM, 1.16 mg/ml) in detergent and phospholipids reacted with 2 mM DSS(d0/d12), pH 8.0, 2 h; tryptic digest, cation exchange fractionation, linked lysines identified by mass spectrometry"}, "F-ATPase subunit g": {"biological_target": "T4, F-ATPase subunit g (bovine, UniProt Q28852 1-103)", "T4 construct": "ATP synthase subunit g, mitochondrial, bovine; endogenous supernumerary membrane subunit of the purified F-ATPase; source: purified from bovine mitochondrial membranes as part of the F-ATPase complex", "T4 sequence (looked up)": "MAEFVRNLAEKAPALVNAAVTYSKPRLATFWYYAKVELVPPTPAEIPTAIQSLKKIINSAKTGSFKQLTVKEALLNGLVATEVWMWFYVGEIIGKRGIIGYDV", "experiment": "cross-linking; purified monomeric bovine F-ATPase reacted with BS^3(d0/d12) at the same concentration and under the same conditions as DSS; tryptic digest, linked lysines identified by mass spectrometry"}, "F-ATPase subunit d [5]": {"biological_target": "B1", "experiment": "cross-linking; purified monomeric bovine F-ATPase (2 μM, 1.16 mg/ml) in detergent and phospholipids reacted with 2 mM DSS(d0/d12), pH 8.0, 2 h; tryptic digest, cation exchange fractionation, linked lysines identified by mass spectrometry", "remark": "listed apart in the source"}, "F-ATPase subunit b [6]": {"biological_target": "T1, F-ATPase subunit b", "experiment": "cross-linking; purified monomeric bovine F-ATPase (2 μM, 1.16 mg/ml) in detergent and phospholipids reacted with 2 mM DSS(d0/d12), pH 8.0, 2 h; tryptic digest, cation exchange fractionation, linked lysines identified by mass spectrometry", "remark": "listed apart in the source"}}}
{"binder": "F-ATPase subunit e (natural protein, bovine, UniProt Q00361 1-71, looked up, ATP synthase subunit e, mitochondrial, bovine; endogenous supernumerary membrane subunit of the purified F-ATPase; source: purified from bovine mitochondrial membranes as part of the F-ATPase complex) MVPPVQVSPLIKLGRYSALFLGMAYGAKRYNYLKPRAEEERRLAAEEKKKRDEQKRIERELAEAQEDTILK", "values": [{"measurement": "binding result", "setting": "F-ATPase subunit f", "value": "binds"}]}
{"binder": "F-ATPase subunit ATP8 (natural protein, bovine, UniProt P03929 1-66, looked up, ATP synthase protein 8 (A6L), encoded in mitochondrial DNA, bovine; endogenous membrane subunit of the purified F-ATPase; C terminus at residue 66 as printed; also called A6L; source: purified from bovine mitochondrial membranes as part of the F-ATPase complex) MPQLDTSTWLTMILSMFLTLFIIFQLKVSKHNFYHNPELTPTKMLKQNTPWETKWTKIYLPLLLPL", "values": [{"measurement": "binding result", "setting": "F-ATPase subunit F6", "value": "binds"}, {"measurement": "binding result", "setting": "F-ATPase subunit d [1]", "value": "binds"}, {"measurement": "binding result", "setting": "F-ATPase subunit b [2]", "value": "binds"}]}
{"binder": "F-ATPase subunit DAPIT (diabetes-associated protein in insulin-sensitive tissues) (natural protein, bovine, UniProt Q3ZBI7 1-58, looked up, DAPIT (diabetes-associated protein in insulin-sensitive tissues), bovine; endogenous supernumerary membrane subunit of the purified F-ATPase; source: purified from bovine mitochondrial membranes as part of the F-ATPase complex) MAGPEADAQFHFTGIKKYFNSYTLTGRMNCVLATYGSIALIVLYFKLRSKKTPAVKAT", "values": [{"measurement": "binding result", "setting": "[3]", "value": "binds"}]}
{"binder": "B1", "values": [{"measurement": "binding result", "setting": "F-ATPase subunit b [4]", "value": "binds"}]}
{"binder": "F-ATPase subunit oscp (natural protein, bovine, UniProt P13621 24-213, looked up, ATP synthase subunit O (oligomycin sensitivity conferral protein), mitochondrial, bovine; endogenous subunit of the peripheral stalk of the purified F-ATPase; source: purified from bovine mitochondrial membranes as part of the F-ATPase complex) FAKLVRPPVQIYGIEGRYATALYSAASKQNKLEQVEKELLRVGQILKEPKMAASLLNPYVKRSVKVKSLSDMTAKEKFSPLTSNLINLLAENGRLTNTPAVISAFSTMMSVHRGEVPCTVTTASALDEATLTELKTVLKSFLSKGQVLKLEVKIDPSIMGGMIVRIGEKYVDMSAKTKIQKLSRAMREIL", "values": [{"measurement": "binding result", "setting": "F-ATPase α-subunit", "value": "binds"}]}
{"binder": "B2", "values": [{"measurement": "binding result", "setting": "F-ATPase subunit g", "value": "binds"}]}
{"binder": "B3", "values": [{"measurement": "binding result", "setting": "F-ATPase subunit d [5]", "value": "binds"}, {"measurement": "binding result", "setting": "F-ATPase subunit b [6]", "value": "binds"}]}
